Reference: patent US20200369775A1 (Dana-Farber, published 2020)

Legend:
[1] = target: T1, IL-2 receptor β subunit chain (UniProt P14784 27-551); experiment: transiently transfected 293T cells, control experiment
T1 construct: whole, on cells; also called β chain; IL-2R β
T1 sequence (looked up): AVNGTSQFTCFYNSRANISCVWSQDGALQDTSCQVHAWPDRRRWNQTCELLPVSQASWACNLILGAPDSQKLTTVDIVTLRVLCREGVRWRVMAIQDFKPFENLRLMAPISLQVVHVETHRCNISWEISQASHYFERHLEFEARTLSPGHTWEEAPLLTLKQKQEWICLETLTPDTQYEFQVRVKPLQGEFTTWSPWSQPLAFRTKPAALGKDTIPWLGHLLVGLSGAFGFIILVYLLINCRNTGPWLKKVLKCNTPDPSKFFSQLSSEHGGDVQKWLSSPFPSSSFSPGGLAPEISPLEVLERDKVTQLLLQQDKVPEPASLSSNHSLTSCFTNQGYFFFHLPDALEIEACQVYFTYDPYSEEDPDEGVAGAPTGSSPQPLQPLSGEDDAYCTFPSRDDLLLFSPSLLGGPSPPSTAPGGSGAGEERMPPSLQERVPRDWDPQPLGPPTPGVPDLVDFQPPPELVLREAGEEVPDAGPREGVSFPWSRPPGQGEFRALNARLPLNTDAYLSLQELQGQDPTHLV

[2] = target: T2, IL-2 receptor (IL-2R) complex of α, β and γ chains (UniProt P01589 22-272; P14784 27-551; P31785 23-369); experiment: as above
T2 construct: whole, on cells; co-expressed on transiently transfected 293T cells in the control experiment; also called IL-2Rs; the complex
T2 sequence (looked up) 1: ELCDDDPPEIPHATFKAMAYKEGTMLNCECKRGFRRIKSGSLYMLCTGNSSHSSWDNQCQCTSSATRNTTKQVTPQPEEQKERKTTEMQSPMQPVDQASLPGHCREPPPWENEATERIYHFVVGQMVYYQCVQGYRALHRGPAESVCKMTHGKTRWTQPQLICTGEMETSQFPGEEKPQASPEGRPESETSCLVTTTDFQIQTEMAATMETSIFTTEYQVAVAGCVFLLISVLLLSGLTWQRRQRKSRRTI
T2 sequence (looked up) 2: T1 sequence (looked up)
T2 sequence (looked up) 3: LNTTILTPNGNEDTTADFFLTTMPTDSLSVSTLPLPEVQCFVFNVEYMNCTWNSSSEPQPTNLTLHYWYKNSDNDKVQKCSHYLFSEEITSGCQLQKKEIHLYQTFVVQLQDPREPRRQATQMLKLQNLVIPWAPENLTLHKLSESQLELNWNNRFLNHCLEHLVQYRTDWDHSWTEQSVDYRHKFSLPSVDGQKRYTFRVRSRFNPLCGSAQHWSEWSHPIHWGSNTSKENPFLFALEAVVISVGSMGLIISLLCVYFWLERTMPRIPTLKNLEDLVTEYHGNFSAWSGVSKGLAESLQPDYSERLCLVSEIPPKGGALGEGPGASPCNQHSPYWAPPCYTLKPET

[3] = target: T3, CD25 (TAC), the α chain of IL-2 receptor (UniProt P01589 22-272, limits assumed); experiment: as above
T3 construct: whole, on cells; also called IL-2Rα; α subunit chain
T3 sequence (looked up): T2 sequence (looked up) 1

[4] = target: T4, IL-2 receptor γ subunit chain (UniProt P31785 23-369); experiment: as above
T4 construct: whole, on cells; also called γ chain; IL-2R γ
T4 sequence (looked up): T2 sequence (looked up) 3

[5] = target: T5, CC chemokine receptor 4 (CCR4) (human, UniProt P51679 1-360); experiment: depletion of CCR4+ tumor-primed T cells with antibody-conjugated beads, checked by flow cytometry
T5 construct: whole, on cells; Endogenous CCR4 on human T cell subsets and Mac-1 cells
T5 sequence (looked up): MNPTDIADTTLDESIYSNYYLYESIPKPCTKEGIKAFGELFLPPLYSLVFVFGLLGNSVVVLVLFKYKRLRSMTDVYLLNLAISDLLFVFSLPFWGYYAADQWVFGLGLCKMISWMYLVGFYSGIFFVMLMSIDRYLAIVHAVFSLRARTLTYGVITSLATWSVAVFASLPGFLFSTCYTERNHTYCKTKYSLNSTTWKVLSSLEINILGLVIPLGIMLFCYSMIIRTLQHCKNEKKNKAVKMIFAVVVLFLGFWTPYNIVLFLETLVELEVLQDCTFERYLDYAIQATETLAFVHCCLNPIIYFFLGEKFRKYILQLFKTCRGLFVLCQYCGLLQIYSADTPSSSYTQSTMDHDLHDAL
Method: FIG. 4. The activity of tumor-primed T cells on IGROV-1 cells. (A) Tumor-primed T cells were stained by anti-CD3, CD4, CD8, CD25 and (B) CCR4 antibodies. CCR4-depleted tumor-primed T cells by mAb2-3-conjugated beads and T cell subsets in tumor-primed T cells were analyzed by flow cytometry. (C) Tumor-primed T cells and mAb2-3-depleted tumor-primed T cells were incubated with IGROV-1 cells for 24 and 48 hours and then the supernatant were harvested and detected the expression level of IFN-γ. […] (D) Intracellular IFN-γ staining of CD4 and CD8 T cells from coculture. Cells were harvested at 48 hours post-coculture; incubated for 6 h in the presence of brefeldin A; stained for CD3, CD4, and CD8; fixed in paraformaldehyde; permeabilized; and stained for intracellular IFN-γ. The cells were gated on lymphocytes by size and CD markers and analyzed by flow cytometry. (E) The cytotoxic activities of tumor-primed T cells and mAb2-3-depleted tumor primed T cells were further detected by LDH ELISA assay. All experiments represented triplicates in each time point with the means±S.D. and performed in two independent experiments. *, **, and *** represents student's t-test p value<0.05, 0.01, and 0.005, respectively.
To establish an OvCA xenograft bearing humanized mouse model, IGROV-1-specific T cells in vitro were created that could be tested subsequently for in vivo immunotherapy. […]

B1: mAb2-3 (isotype not stated for the experiment) (antibody, V domains shown)
VH: QVQLVQSGAEVKKPGASVKVSCKASGYTFASAWMHWMRQAPGQGLEWIGWINPGNVNTKYNEKFKGRATLTVDTSTNTAYMELSSLRSEDTAVYYCARSTYYRPLDYWGQGTLVTVSS
VL: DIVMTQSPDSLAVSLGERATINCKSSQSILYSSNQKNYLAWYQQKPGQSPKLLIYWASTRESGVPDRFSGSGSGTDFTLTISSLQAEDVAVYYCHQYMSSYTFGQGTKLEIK
[1]
  binding result: no binding
[2]
  binding result: no binding
[3]
  binding result: no binding
[4]
  binding result: no binding
[5]
  binding result: binds
